Results on two molecules are retold here after paper doi:10.1101/2024.04.29.591597 (bioRxiv, 2024).

The series “crystal structure” deals with the molecule itself. The series is described as follows: crystal structure.
Series [1] addresses OspC type B (OspCB) used in BLI (Borreliella burgdorferi, OspC type B …, UniProt Q44977). The series is described as follows: BLI.
Series [2] has as its target native OspC type K (OspCK) on live B. burgdorferi strain 297 (B. burgdorferi (endogenous in strain 297)). The series can be described thus: flow cytometry on cells.

B1: Recombinant Outer surface protein C type A (OspCA), residues 38 to 201, homodimer (domain or fragment, B. burgdorferi B31, UniProt Q07337 38-201, looked up)
chain: KGPNLTEISKKITDSNAVLLAVKEVEALLSSIDEIAAKAIGKKIHQNNGLDTENNHNGSLLAGAYAISTLIKQKLDGLKNEGLKEKIDAAKKCSETFTNKLKEKHTDLGKEGVTDADAKEAILKTNGTKTKGAEELGKLFESVEVLSKAAKEMLANSVKELTSP
Consider B1, for which the “stoichiometry N” value in “crystal structure” was 2.

B2: human monoclonal antibody B11 IgG1 (antibody, V domains shown)
VH: QLQLQESGPGLVKPSQTLSLTCTLSGGSISSTSYYWGWIRQPPGSGLEWIGSMYHSGNTYYKSSLKGRVTISLDTSRTQFSLRLTSVTAADTAVYYCARLGDVFNSAMDVWGQGTTVIVSS
VL: EIVMTQSPVTLSVSPGERATLSCRASQSVGNNLAWYQHKPGQAPRLLIYDASTRATGIPGRFSGSGSGTEFTLTISSLQSEDFAVYYCQEYNNWPRYTFGQGAKLEIR
As to B2, the binding result in series [1] is recorded as “no binding”. In addition, in series [2], the MFI is < 35.
